From paper PMC10022743 come the findings set out here.

Holding throughout (test): immunoprecipitation followed by mass spectrometry
What all share (conditions): 2 h EBSS and 300 nM Torin 1; YKT6 siRNA-treated HEK293T WT cells; read off a plot

In experiment [1] the target is VAMP8.
In experiment [2] the target is BET1.
Experiment [3] addresses NSF.
In experiment [4] the target is STX5.
In experiment [5] the target is VTI1B.
In experiment [6] the target is SNAP23.
The target in experiment [7] is SEC22B.
The target in experiment [8] is NAPA.
The target of experiment [9] is SEC24C.

Take “HA–YKT6-WT (full-length, siRNA-resistant) (from UniProt O15498) T156A”: the other: Log2 T156A : WT ratio in experiment [1] came out at 1 log2; in [2], 0.27 log2; in [3], 2.3 log2; in experiment [4], 1.2 log2; in experiment [5], 1.4 log2; in experiment [6], 2.8 log2. The figures for the other: Log2 T156A : WT ratio in [7], in experiment [8] and in experiment [9] were 1.9 log2, 1.6 log2 and 0.67 log2, respectively.
Consider “HA–YKT6-WT (full-length, siRNA-resistant) (from UniProt O15498) T156E”, for which the other: Log2 T156E : WT ratio was -2 log2 in [1]; -4.4 log2 in experiment [2]; -0.3 log2 in experiment [3]; -0.7 log2 in [4]; -0.7 log2 in experiment [5]; -1.5 log2 in experiment [6]. Besides, the other: Log2 T156E : WT ratio was -1.3 log2 in [7], -0.8 log2 in experiment [8] and 0.18 log2 in experiment [9].
